Experimental data published in patent publication US20230241072A1, “ANTHRACYCLINE DERIVATIVES” (ALMAC DISCOVERY LIMITED, priority 2019, published 2023).

Columns and labels:
Kasumi-2 = experiment: In vitro cell viability assay (Cell Titre Glo), VNAR drug conjugates: Kasumi-2; type: cell-based, human; details: for IC50: Table 5, 96 h
Procedure: (§1) In Vitro Cell Viability Assays for Cancer Cells Treated with Anti ROR1 VNAR Drug Conjugates
(§2) Cells were seeded into white, clear bottom 96 well plates (Costar) and incubated at 37° C., 5% CO2 for 24 hours. On the following day, dilution series were set up for each test agent at ×10 working stocks. The dose response ×10 stock was: 10000, 5000, 1000, 500, 100, 50, 10, 5, 1, 0.5 nM etc. 10 μL of the ×10 stock solutions were added to the cell plates (90 μl per well) using a multichannel pipette. […] 100d of vehicle control (PBS) was added to the control wells (columns 11 and 12). Plates were incubated at 37′C, 5% CO2 for 72-96 hours. Promega Cell litre Glo reagent was used as per the manufacturer's instructions to assess cell viability. Briefly, assay plates were removed from incubator and allowed to equilibrate to room temperature before adding […] of room temperature Cell litre Glo reagent to each 100 μl assay well. Plates were placed on a plate shaker for 2 minutes at 600 rpm. Plates were allowed to sit for a further 10 minutes at room temperature prior to measuring luminescence read-out using a Clariostar plate-reader (BMG). Data was analysed by calculating the average for untreated (vehicle only) control wells and determining the % of control for each treated well. % of control data was then plotted against Log [Treatment] concentration and the IC50 value derived using non-linear regression fitting in GraphPad Prism software.
(§3) The following cell lines were used: • Kasumi-2—human B cell leukaemia precursor; • PA-1—human ovarian cancer cell line; • PA-1 ROR1 ko—human ovarian cancer cell line with ROR1 knock-out; • 697—human B cell leukaemia precursor, and • MHH-ES1—human Ewing's sarcoma cell line.

[1] = Human plasma stability of protein-PNU conjugates (LC-MS of released payload); type: in vitro ADME; details: 37° C., up to 168 h, 4 or 2 uM PDC, LLOQ 0.1 or 0.156 uM
Procedure: Different conjugates were incubated at 37° C. for 168 h in human plasma at a final concentration of 4 μM or 2 μM of protein. Samples were analysed by LC-MS as a function of time up to and including 168 h and the amount of released PNU159682 and EDA-PNU159682 derivative was quantified by reference to calibration standards.

MHH-ES1 = experiment: In vitro cell viability assay (Cell Titre Glo), VNAR drug conjugates: MHH-ES1; type: cell-based, human; details: for IC50: Table 5, 96 h
Procedure: as §1, §2, §3

Cathepsin B = Cathepsin B (Homo sapiens, UniProt P07858); experiment: Cathepsin B treatment of protein-PNU conjugates, payload release; type: in vitro ADME; details: after treatment with Cat B; protein 10 uM (2VhFc conjugate 5 uM)
From the text: Cathepsin B treatment of VNAR-hFc-vc-PAB-EDA-PNU conjugates and the corresponding conjugates of the multimeric proteins liberated free EDA-PNU159682 derivative in a quantitative fashion. Whereas, VNAR-hFc-va-EDA-PNU conjugates and the corresponding conjugates of the multimeric proteins were completely stable to Cathepsin B treatment.
Only the vc-PAB-EDA-PNU releases payload on treatment with CatB as expected for the conditions used in this in vitro assay. The release is quantitative—as the conjugates have a drug to antibody ratio of 2, then twice the concentration of payload released versus the concentration of conjugate is expected after CatB treatment. This expectation matches the data shown in Table 11 for vc-PAB-EDA-PNU conjugates.

PA-1 = experiment: In vitro cell viability assay (Cell Titre Glo), VNAR drug conjugates: PA-1; type: cell-based, human; details: for IC50: Table 5, 96 h
Procedure: as §1, §2, §3

PA-1 ROR1 ko = experiment: In vitro cell viability assay (Cell Titre Glo), VNAR drug conjugates: PA-1 ROR1 ko; type: cell-based, human; details: for IC50: Table 5, 96 h, PA-1 ROR1 ko
Procedure: as §1, §2, §3

697 = experiment: In vitro cell viability assay (Cell Titre Glo), VNAR drug conjugates: 697; type: cell-based, human
Procedure: as §1, §2, §3

[2] = Mouse plasma stability of protein-PNU conjugates (LC-MS of released payload); type: in vitro ADME; details: 37° C., 4 μM protein
Procedure: Different P3A1-hFc-PNU conjugates were incubated at 37° C. in mouse plasma at a final concentration of 4 μM of protein. Samples were analysed by LC-MS as a function of time and the amount of released PNU159682 and EDA-PNU159682 derivative was quantified by reference to calibration standards.

human ROR2 = target: T1, human ROR2 (Homo sapiens, UniProt Q01974); experiment: SPR / BLI binding to immobilised ROR2-hFc
T1 construct: ROR1-hFc or ROR2-hFc fusion proteins (extracelluar domains) were immobilised
Procedure: (§4) VNARs were genetically fused to engineered hIgG1 Fc domains via standard [G4S]3 that contained a cysteine substitution in the hIgG1 Fc sequence, S239C (EU numbering). The VNAR Fc fusion proteins were expressed as secreted protein in CHO K1 cells and purified from the media using MabSelect™ SuRe™ (Evitria, Switzerland). Purified proteins were analysed by SEC (AdvanceBio, Agilent), SDS PAGE and mass spectrometry to confirm sequence and protein integrity. Binding kinetics were determined using a Pioneer Surface Plasmon Resonance (SPR) instrument (SensiQ/Pall ForteBio), or the Biolayer Interferometry (BLI) Octet K2 system (ForteBio). ROR1-hFc or ROR2-hFc fusion proteins (extracelluar domains) were immobilised in sodium acetate pH5 buffer to COOH2 chips or AR2G sensors using amine coupling. VNARs and VNAR-Fc molecules were tested at various concentrations and the Ka (M^−1 s^−1), Kd (s^−1) and KD (nM) values were determined using QDat software (SensiQ/Pall ForteBio) or Octet Data Analysis High Throughput software (ForteBio) for Biolayer Interferometry. ROR1 2A2 mAb (Biolegend) and ROR2 mAb (R&D Systems) were included as controls for positive/negative binding to ROR1 and ROR2. 2V is a control VNAR sequence, derived from a naïve VNAR library, so is representative of this protein class but has no known target.
(§5) Binding kinetics for binding of the multimeric VNAR proteins to ROR1-hFc or ROR2-hFc fusion proteins (extracelluar domains) were determined using a Pioneer Surface Plasmon Resonance (SPR) instrument (SensiQ/Pall ForteBio) or the Biolayer Interferometry (BLI) Octet K2 system (ForteBio) as previously described.

ROR1 = ROR1 (Homo sapiens, UniProt Q01973); experiment: SPR / BLI binding kinetics to immobilised ROR1-hFc; parameters: ROR1-hFc or ROR2-hFc fusion proteins (extracelluar domains) were immobilised; details: for hROR1 Ka / hROR1 Ka (M^−1s^−1): association rate; for Kd: read-out: hROR1 KD
Procedure: as §4, §5

[3] = ratio to corresponding non-binding 2V-hFc conjugate
[4] = Table 3, VNAR-Fc fusions, dissociation rate
[5] = Table 3b, VNAR-Fc fusions, dissociation rate

B1: P3A1hFc-PEG4-vc-PAB-EDA-PNU (conjugate)
chain: TRVDQTPRTATKETGESLTINCVLTDTSYGLYSTSWFRKNPGTTDWERMSIGGRYVESVNKGAKSFSLRIKDLTVADSATYYCKAREARHPWLRQWYDGAGTVLTVNGGGGSGGGGSGGGGS
modifications: left off: a dimerising Fc or GST
IC50 (Kasumi-2): 3.2 nM
ROR1 targeting/2V non-targeting window Kasumi-2 (Kasumi-2; [3]): 18
Observed EDA payload release [1]: EDA-PNU not detected above LLOQ
IC50 (MHH-ES1): 24 nM
ROR1 targeting/2V non-targeting window MHH-ES1 (MHH-ES1; [3]): 1.1
Average Conc EDA Released (Cathepsin B): 20.1 µM
IC50 (PA-1): 0.1 nM
ROR1 targeting/2V non-targeting window PA-1 (PA-1; [3]): 73
IC50 (PA-1 ROR1 ko): 11 nM
ROR1 targeting/2V non-targeting window PA-1 31-J-06 (PA-1 ROR1 ko; ratio to corresponding non-binding 2V-hFc conjugate, PA-1 31-J-06 (ROR1 −/−; matches PA-1 ROR1 ko of Table 5)): 1.3
IC50 (697; Table 5, 96 h): 52 nM
ROR1 targeting/2V non-targeting window 697 697; [3]: 1.2
Concentration (nM) of free PNU payload detected by LC-MS, 4 h ([2]; 4 h): 21 nM
Concentration (nM) of free PNU payload detected by LC-MS, 24 h ([2]; 24 h): 84 nM
Concentration (nM) of free PNU payload detected by LC-MS, 48 h ([2]; 48 h): 108 nM
Concentration (nM) of free PNU payload detected by LC-MS, 72 h ([2]; 72 h): 107 nM
Concentration (nM) of free PNU payload detected by LC-MS, 96 h ([2]; 96 h): 101 nM
Concentration (nM) of free PNU payload detected by LC-MS, 120 h ([2]; 120 h): 114 nM

B2: P3A1 hFc: ROR1-specific VNAR P3A1 fused to engineered hIgG1 Fc domain (S239C) (protein)
chain: TRVDQTPRTATKETGESLTINCVLTDTSYGLYSTSWFRKNPGTTDWERMSIGGRYVESVNKGAKSFSLRIKDLTVADSATYYCKAREARHPWLRQWYDGAGTVLTVNGGGGSGGGGSGGGGS
modifications: left off: a dimerising Fc or GST
hROR2 (human ROR2; Table 3, VNAR-Fc fusions): No binding
hROR1 Ka (ROR1; Table 3, VNAR-Fc fusions): 1.07e+07 M⁻¹ s⁻¹
hROR1 Kd (ROR1; [4]): 0.000564 s⁻¹
Kd (ROR1; Table 3, VNAR-Fc fusions): 0.084 nM

B3: P3A1 hFc(442): VNAR P3A1 fused to engineered hIgG1 Fc with cysteine substitution S442C (EU numbering) (protein)
chain: TRVDQTPRTATKETGESLTINCVLTDTSYGLYSTSWFRKNPGTTDWERMSIGGRYVESVNKGAKSFSLRIKDLTVADSATYYCKAREARHPWLRQWYDGAGTVLTVNGGGGSGGGGSGGGGS
modifications: left off: a dimerising Fc or GST
hROR2 (human ROR2; Table 3b, VNAR-Fc fusions): No binding
hROR1 Ka (M^−1s^−1) (ROR1; Table 3b, VNAR-Fc fusions): 2.70+05 M^−1s^−1
hROR1 Kd (ROR1; [5]): 0.0002 s⁻¹

B4: P3A1hFc(442)-PEG4-va-EDA-PNU (conjugate)
chain: TRVDQTPRTATKETGESLTINCVLTDTSYGLYSTSWFRKNPGTTDWERMSIGGRYVESVNKGAKSFSLRIKDLTVADSATYYCKAREARHPWLRQWYDGAGTVLTVNGGGGSGGGGSGGGGS
modifications: left off: a dimerising Fc or GST
IC50 (Kasumi-2): 9.1 nM
Observed EDA payload release [1]: No EDA-PNU detected at any time points
IC50 (MHH-ES1): 37.5 nM
IC50 (PA-1): 0.025 nM
IC50 (PA-1 ROR1 ko): 18.3 nM

B5: 2V hFc: non-binding control VNAR 2V fused to hIgG1 Fc (protein)
chain: TRVDQTPRTATKETGESLTINCVLTDTSYGLYSTSWFRKNPGTTDWERMSIGGRYVESVNKGAKSFSLRIKDLTVADSATYYCKAQSLAISTRSYWYDGAGTVLTVNGGGGSGGGGSGGGGS
modifications: left off: a dimerising Fc or GST
hROR2 (human ROR2; Table 3, VNAR-Fc fusions): No binding
hROR1 KD (nM) (ROR1; Table 3, VNAR-Fc fusions): No binding
hROR1 Ka (M^−1s^−1) (ROR1; Table 3, VNAR-Fc fusions): No binding
hROR1 Kd (s^−1) (ROR1; [4]): No binding

B6: hFc - P3A1: hIgG1 Fc - VNAR P3A1 fusion (protein)
chain: GGGGSGGGGSGGGGSTRVDQTPRTATKETGESLTINCVLTDTSYGLYSTSWFRKNPGTTDWERMSIGGRYVESVNKGAKSFSLRIKDLTVADSATYYCKAREARHPWLRQWYDGAGTVLTVN
modifications: left off: a dimerising Fc or GST
notes: hIgG1 Fc - VNAR P3A1 fusion
hROR2 (human ROR2; Table 3, VNAR-Fc fusions): No binding
hROR1 Ka (ROR1; Table 3, VNAR-Fc fusions): 2.38e+06 M⁻¹ s⁻¹
hROR1 Kd (ROR1; [4]): 0.000776 s⁻¹
Kd (ROR1; Table 3, VNAR-Fc fusions): 0.35 nM

B7: B1V15 hFc: humanised VNAR B1V15 (SEQ ID NO: 59) - hFc fusion (protein)
chain: ASVTQSPRSASKETGESLTITCRVTGANYGLAATYWYRKNPGSSNQERISISGRYSESVNKRTMSFSLRISSLTVEDSATYYCKAYPWGAGAPWLVQWYDGQGTKLEVKGGGGSGGGGSGGGGS
modifications: left off: a dimerising Fc or GST
hROR2 (human ROR2; Table 3b, VNAR-Fc fusions): No binding
hROR1 Ka (ROR1; Table 3b, VNAR-Fc fusions): 179000 M⁻¹ s⁻¹
hROR1 Kd (ROR1; [5]): 0.00013 s⁻¹
